Reference: patent US20110217237A1 (AbbVie / Abbott, published 2011)

Key:
mouse DLL4 on cells [1] = molecular target: T1, mouse DLL4 on cells (mouse, UniProt Q9JI71 27-686); assay: FACS, direct binding to DLL4 cells
T1 construct: whole, on cells; also called mouse DLL4-293G; mu DLL4 cells
Protocol: (§1) Stable cell lines overexpressing cell-surface DLL4 were harvested from tissue culture flasks, washed four times and resuspended in phosphate buffered saline (PBS) containing 1% bovine serum albumin and 1 mM CaCl₂ (FACS buffer). 1.5×10⁵ cells were incubated with antibodies at various concentrations in FACS buffer for 60 minutes on ice. […] Following an incubation on ice (4° C., 60 minutes), cells were washed three times and resuspended in FACS buffer. Fluorescence was measured using a Becton Dickinson FACSCalibur-HTS (Becton Dickinson, San Jose, Calif., US). Data were analyzed using Graphpad Prism software and EC₅₀ values were reported as the concentration of antibody to achieve 50% of maximal DLL4 antibodies binding to DLL4 expressing cells.
(§2) The hu1A11.1 affinity matured clones (Table 22) were expressed, purified, and further characterized in vitro. Their activities of binding to cell-bound DLL4 and inhibiting cell-bound DLL4-induced Notch activation were further examined using methods described in Examples 1.3 and 1.6, and are summarized in Table 26 (below).

[2] = molecular target: T2, human DLL4, full length, on cells (human, UniProt Q9NR61 27-685); assay: FACS, direct binding to DLL4 cells
T2 construct: also called huDLL4 cells; human DLL4-293G
Protocol: as §1, §2

mouse DLL4 on cells [3] = molecular target: T1, mouse DLL4 on cells; assay: cell-based or functional assay
[4] = molecular target: T2, human DLL4, full length, on cells; assay: cell-based or functional assay
[5] = molecular target: T3, mouse DLL4 extracellular domain (mouse, UniProt Q9JI71 27-532); assay: SPR (Biacore)
T3 construct: extracellular domain; also called muDLL4 ECD; murine DLL4
Protocol: (§3) The BIACORE® surface plasmon resonance assay (Biacore, Inc., Piscataway, N.J., US) determines the affinity of antibodies with kinetic measurements of on-rate and off-rate constants. Binding of DLL4 antibodies to a purified recombinant DLL4 extracellular domain (ECD) was determined by surface plasmon resonance-based measurements with a Biacore® instrument (either a Biacore 2000, Biacore 3000, or Biacore T100; GE Healthcare, Piscataway, N.J., US) using running buffer HBS-EPB (10 mM HEPES [pH 7.4], 150 mM NaCl, 3 mM EDTA, 0.1 mg/ml BSA and 0.005% surfactant P20) at 25° C. For example, approximately 9000 RU of goat anti-human Fc specific polyclonal antibody (Thermo Fisher Scientific Inc., Rockford, Ill., US) diluted in 10 mM sodium acetate (pH 4.5) is directly immobilized across a CMS research grade biosensor chip using a standard amine coupling kit according to manufacturer's instructions and procedures at 25 μg/ml. Unreacted moieties on the biosensor surface were blocked with ethanolamine. For kinetic analysis, rate equations derived from the 1:1 Langmuir binding model were fitted simultaneously to multiple antigen injections (using global fit analysis) with the use of Scrubber 2 (BioLogic Software), Biacore Biaevaluation 4.0.1 software or Biacore T100 Evaluation software. Purified antibodies were diluted in running buffer for capture across goat anti-human Fc reaction surfaces. Antibodies to be captured as a ligand (1 μg/ml) were injected over reaction matrices at a flow rate of 10 μl/min. During the assay, all measurements were referenced against the capture surface alone (i.e., with no captured anti-DLL4 antibody). […] The equilibrium dissociation constant KD (M) of the reaction between antibodies and the target antigen was then calculated from the kinetic rate constants by the following formula: KD=Koff/Kₒₙ. Binding was recorded as a function of time and kinetic rate constants were calculated.

[6] = molecular target: T4, rat DLL4 extracellular domain (rat, UniProt D3ZHH1 28-530); assay: SPR (Biacore)
T4 construct: extracellular domain; also called ratDLL4 ECD
Protocol: as §3

[7] = molecular target: T5, cynomolgus monkey DLL4 extracellular domain (cynomolgus monkey); assay: SPR (Biacore)
T5 construct: extracellular domain; also called cynoDLL4 ECD; Cyno DLL4
Protocol: as §3

[8] = molecular target: T6, human DLL4 extracellular domain (human, UniProt Q9NR61 27-529); assay: SPR (Biacore)
T6 construct: purified recombinant ECD; biotin-labelled or 6xHis-tagged depending on the assay; also called huDLL4 ECD; hu DLL4 ECD
Protocol: as §3

T2 sequence (Q9NR61 27-685 limits assumed): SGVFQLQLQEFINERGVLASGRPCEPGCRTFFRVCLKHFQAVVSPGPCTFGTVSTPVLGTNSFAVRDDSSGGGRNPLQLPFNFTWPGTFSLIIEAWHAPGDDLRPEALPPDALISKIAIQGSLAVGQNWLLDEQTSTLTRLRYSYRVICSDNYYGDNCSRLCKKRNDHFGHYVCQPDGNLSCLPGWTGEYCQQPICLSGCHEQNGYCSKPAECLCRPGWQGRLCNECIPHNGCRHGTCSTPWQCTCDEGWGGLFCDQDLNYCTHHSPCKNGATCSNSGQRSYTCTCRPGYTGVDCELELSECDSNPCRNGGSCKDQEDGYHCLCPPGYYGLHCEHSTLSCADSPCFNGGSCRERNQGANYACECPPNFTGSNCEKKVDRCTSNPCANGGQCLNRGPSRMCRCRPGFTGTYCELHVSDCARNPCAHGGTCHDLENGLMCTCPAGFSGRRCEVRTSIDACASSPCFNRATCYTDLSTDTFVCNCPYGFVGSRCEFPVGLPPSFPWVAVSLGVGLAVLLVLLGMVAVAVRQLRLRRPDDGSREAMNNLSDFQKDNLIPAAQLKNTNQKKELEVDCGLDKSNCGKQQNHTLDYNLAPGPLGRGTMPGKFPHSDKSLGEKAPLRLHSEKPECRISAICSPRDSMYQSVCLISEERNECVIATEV
T4 sequence (D3ZHH1 28-530): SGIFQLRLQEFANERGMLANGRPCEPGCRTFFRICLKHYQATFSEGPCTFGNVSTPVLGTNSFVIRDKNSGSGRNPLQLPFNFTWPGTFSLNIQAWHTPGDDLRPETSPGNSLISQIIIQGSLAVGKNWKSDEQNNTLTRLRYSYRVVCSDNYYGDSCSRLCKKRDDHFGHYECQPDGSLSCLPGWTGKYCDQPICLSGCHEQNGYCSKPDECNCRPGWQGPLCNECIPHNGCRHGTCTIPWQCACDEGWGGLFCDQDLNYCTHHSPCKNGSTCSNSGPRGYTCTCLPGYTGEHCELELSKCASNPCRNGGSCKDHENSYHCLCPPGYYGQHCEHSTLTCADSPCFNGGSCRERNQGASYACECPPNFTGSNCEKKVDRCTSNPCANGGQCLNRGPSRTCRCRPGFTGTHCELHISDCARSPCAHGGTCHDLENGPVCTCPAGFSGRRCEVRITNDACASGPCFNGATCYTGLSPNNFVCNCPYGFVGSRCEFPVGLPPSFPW
T3 sequence (Q9JI71 27-532): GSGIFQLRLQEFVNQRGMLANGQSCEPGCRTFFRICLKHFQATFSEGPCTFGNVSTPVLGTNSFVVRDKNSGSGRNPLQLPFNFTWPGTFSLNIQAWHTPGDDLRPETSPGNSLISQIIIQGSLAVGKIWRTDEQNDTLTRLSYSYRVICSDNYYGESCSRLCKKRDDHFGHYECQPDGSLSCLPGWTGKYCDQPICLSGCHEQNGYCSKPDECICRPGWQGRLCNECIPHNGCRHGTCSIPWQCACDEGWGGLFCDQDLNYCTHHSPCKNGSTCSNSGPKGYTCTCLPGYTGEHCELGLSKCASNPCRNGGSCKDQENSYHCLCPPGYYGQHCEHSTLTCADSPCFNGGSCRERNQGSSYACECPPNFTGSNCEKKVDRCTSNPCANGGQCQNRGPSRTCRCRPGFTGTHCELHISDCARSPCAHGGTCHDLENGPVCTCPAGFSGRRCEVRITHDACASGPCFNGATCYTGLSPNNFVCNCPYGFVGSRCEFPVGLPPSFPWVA
T1 sequence (Q9JI71 27-686): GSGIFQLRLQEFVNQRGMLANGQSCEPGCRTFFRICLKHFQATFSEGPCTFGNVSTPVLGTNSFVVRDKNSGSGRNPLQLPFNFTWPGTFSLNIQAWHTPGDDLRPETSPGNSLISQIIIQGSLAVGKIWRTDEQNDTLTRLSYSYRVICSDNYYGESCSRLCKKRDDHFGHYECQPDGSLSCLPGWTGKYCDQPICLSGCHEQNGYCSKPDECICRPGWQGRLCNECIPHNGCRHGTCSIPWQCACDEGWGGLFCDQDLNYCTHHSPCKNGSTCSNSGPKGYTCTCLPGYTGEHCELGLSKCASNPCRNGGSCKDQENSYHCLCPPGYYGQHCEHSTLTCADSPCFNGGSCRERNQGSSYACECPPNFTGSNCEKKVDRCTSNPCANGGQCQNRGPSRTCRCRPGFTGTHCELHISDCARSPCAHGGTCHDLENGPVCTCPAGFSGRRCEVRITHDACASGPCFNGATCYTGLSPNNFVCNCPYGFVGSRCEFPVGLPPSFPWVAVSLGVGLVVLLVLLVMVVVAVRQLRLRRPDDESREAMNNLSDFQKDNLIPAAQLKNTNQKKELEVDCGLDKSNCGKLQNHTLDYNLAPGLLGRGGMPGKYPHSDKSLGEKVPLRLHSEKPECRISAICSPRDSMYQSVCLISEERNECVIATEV
T6 sequence (Q9NR61 27-529 limits assumed): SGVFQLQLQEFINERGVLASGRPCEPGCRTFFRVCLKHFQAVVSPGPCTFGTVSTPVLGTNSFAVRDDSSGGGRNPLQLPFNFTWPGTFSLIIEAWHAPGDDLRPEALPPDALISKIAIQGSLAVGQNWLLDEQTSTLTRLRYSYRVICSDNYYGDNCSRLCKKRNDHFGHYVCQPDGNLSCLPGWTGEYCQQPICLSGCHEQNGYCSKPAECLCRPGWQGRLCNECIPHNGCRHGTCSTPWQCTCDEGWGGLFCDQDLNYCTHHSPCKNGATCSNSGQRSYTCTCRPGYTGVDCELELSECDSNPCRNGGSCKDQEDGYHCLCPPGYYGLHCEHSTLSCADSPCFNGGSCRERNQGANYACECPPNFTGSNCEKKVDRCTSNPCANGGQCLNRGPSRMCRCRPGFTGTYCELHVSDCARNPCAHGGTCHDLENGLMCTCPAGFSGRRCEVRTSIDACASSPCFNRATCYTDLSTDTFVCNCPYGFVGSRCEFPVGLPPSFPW

EC50 (mouse DLL4 on cells [1]) [nM]	EC50 [2] [nM]	Inhibition of Notch Activation via DLL4 cells, Notch reporter assay (mouse DLL4 on cells [3]) [nM]	Inhibition of Notch Activation via DLL4 cells, Notch reporter assay [4] [nM]	Kd [5] [nM]	koff [5] [s⁻¹]	kon [5] [M⁻¹ s⁻¹]	Kd [6] [nM]	koff [6] [s⁻¹]	kon [6] [M⁻¹ s⁻¹]	Kd [7] [nM]	koff [7] [s⁻¹]	kon [7] [M⁻¹ s⁻¹]	Kd [8] [nM]	koff [8] [s⁻¹]	kon [8] [M⁻¹ s⁻¹]	binding result [6]	Binder
0.636	2.23	1.17	0.746	0.16	3.12e-05	198000	6	0.000772	129000	0.12	2.1e-05	171000	0.036	6.62e-06	182000		h1A11.A6 (antibody, V domains shown, also called h1A11.A6 VH / h1A11VL.1) VH: EVQLVESGGGLVQPGGSLRLSCAASGFTFRHFPMAWVRQAPGKGLEWVATISSSDAWPSYRDSVKGRFTISRDNAKNSLYLQMNSLRAEDTAVYYCSRGYYNSPFAYWGQGTLVTVSS VL: DIQMTQSPSSLSASVGDRVTITCRASEDIYSNLAWYQQKPGKAPKLLIYDTNNLADGVPSRFSGSGSGTDFTLTISSLQPEDFATYYCQQYNNYPPTFGQGTKLEIK
0.517	2.45	1.19	0.894	0.12	2.34e-05	203000	18	0.00305	169000	0.18	3.12e-05	171000	0.04	7.18e-06	178000		h1A11.C6 (antibody, V domains shown, also called h1A11.C6 VH / h1A11VL.1) VH: EVQLVESGGGLVQPGGSLRLSCAASGFTFRNFPMAWVRQAPGKGLEWVATISSSDGWPTYRDSVKGRFTISRDNAKSSLYLQMNSLRAEDTAVYYCSRGYYNSPFAYWGQGTLVTVSS VL: DIQMTQSPSSLSASVGDRVTITCRASEDIYSNLAWYQQKPGKAPKLLIYDTNNLADGVPSRFSGSGSGTDFTLTISSLQPEDFATYYCQQYNNYPPTFGQGTKLEIK
0.625	2.17	1.79	2.92							7.8	0.00124	158000	5.7	0.000973	170000	no binding	h1A11.A7 (antibody, V domains shown, also called h1A11VH.1 / h1A11.A7 VL) VH: EVQLVESGGGLVQPGGSLRLSCAASGFTFSNFPMAWVRQAPGKGLEWVATISSSDGTTYYRDSVKGRFTISRDNAKNSLYLQMNSLRAEDTAVYYCARGYYNSPFAYWGQGTLVTVSS VL: DIQMTQSPSSLSASVGDRVTITCRASQDIYINLAWYQQKPGKAPKLLIFDTSDLADGVPSRFSGSGSGTDFTLTISSLQPEDFATYYCQQYDYYPPTFGQGTKLEIK
0.568	1.77	0.832	1.66							10	0.00162	158000	7.6	0.00132	173000	no binding	h1A11.A12 (antibody, V domains shown, also called h1A11VH.1 / h1A11.A12 VL) VH: EVQLVESGGGLVQPGGSLRLSCAASGFTFSNFPMAWVRQAPGKGLEWVATISSSDGTTYYRDSVKGRFTISRDNAKNSLYLQMNSLRAEDTAVYYCARGYYNSPFAYWGQGTLVTVSS VL: DIQMTQSPSSLSASVGDRVTITCRASQDIYYNLAWYQQKPGKSPKLLIFDTSSLADGVPSRFSGSGSGTDFTLTISSLQPEDFATYFCQQYDWYPPTFGQGTKLEIK
